According to publication PMC3843485:

Target: Pseudomonas aeruginosa cytoplasmic heme binding protein PhuS, apo form (Pseudomonas aeruginosa)
Experiment: crystal structure

Substance: Pseudomonas aeruginosa cytoplasmic heme binding protein PhuS, apo form (natural protein)
- stoichiometry N: 2
